{"source": "IntAct's records for PubMed 20371349", "parents": {"B1": {"name": "Catenin delta-1 (Homo sapiens), O60716-29 (parent)", "chain": "MIGEEVPSDQYYWAPLAQHERGSLASLDSLRKGGPPPPNWRQPELPEVIAMLGFRLDAVKSNAAAYLQHLCYRNDKVKTDVRKLKGIPVLVGLLDHPKKEVHLGACGALKNISFGRDQDNKIAIKNCDGVPALVRLLRKARDMDLTEVITGTLWNLSSHDSIKMEIVDHALHALTDEVIIPHSGWEREPNEDCKPRHIEWESVLTNTAGCLRNVSSERSEARRKLRECDGLVDALIFIVQAEIGQKDSDSKLVENCVCLLRNLSYQVHREIPQAERYQEAAPNVANNTGPHAASCFGAKKGKGKKPIEDPANDTVDFPKRTSPARGYELLFQPEVVRIYISLLKESKTPAILEASAGAIQNLCAGRWTYGRYIRSALRQEKALSAIADLLTNEHERVVKAASGALRNLAVDARNKELIGKHAIPNLVKNLPGGQQNSSWNFSEDTVISILNTINEVIAENLEAAKKLRETQGIEKLVLINKSGNRSEKEVRAAALVLQTIWGYKELRKPLEKEGWKKSDFQVNLNNASRSQSSHSYDDSTLPLIDRNQKSDKKPDREEIQMSNMGSNTKSLDNNYSTPNERGDHNRTLDRSGDLGDMEPLKGTTPLMQKI"}, "B2": {"name": "Catenin delta-1 (Homo sapiens), O60716-5 (parent)", "chain": "MDDSEVESTASILASVKEQEAQFEKLTRALEEERRHVSAQLERVRVSPQDANPLMANGTLTRRHQNGRFVGDADLERQKFSDLKLNGPQDHSHLLYSTIPRMQEPGQIVETYTEEDPEGAMSVVSVETSDDGTTRRTETTVKKVVKTVTTRTVQPVAMGPDGLPVDASSVSNNYIQTLGRDFRKNGNGGPGPYVGQAGTATLPRNFHYPPDGYSRHYEDGYPGGSDNYGSLSRVTRIEERYRPSMEGYRAPSRQDVYGPQPQVRVGGSSVDLHRFHPEPYGLEDDQRSMGYDDLDYGMMSDYGTARRTGTPSDPRRRLRSYEDMIGEEVPSDQYYWAPLAQHERGSLASLDSLRKGGPPPPNWRQPELPEVIAMLGFRLDAVKSNAAAYLQHLCYRNDKVKTDVRKLKGIPVLVGLLDHPKKEVHLGACGALKNISFGRDQDNKIAIKNCDGVPALVRLLRKARDMDLTEVITGTLWNLSSHDSIKMEIVDHALHALTDEVIIPHSGWEREPNEDCKPRHIEWESVLTNTAGCLRNVSSERSEARRKLRECDGLVDALIFIVQAEIGQKDSDSKLVENCVCLLRNLSYQVHREIPQAERYQEAAPNVANNTGPHAASCFGAKKGKGKKPIEDPANDTVDFPKRTSPARGYELLFQPEVVRIYISLLKESKTPAILEASAGAIQNLCAGRWTYGRYIRSALRQEKALSAIADLLTNEHERVVKAASGALRNLAVDARNKELIGKHAIPNLVKNLPGGQQNSSWNFSEDTVISILNTINEVIAENLEAAKKLRETQGIEKLVLINKSGNRSEKEVRAAALVLQTIWGYKELRKPLEKEGWKKSDFQVNLNNASRSQSSHSYDDSTLPLIDRNQKSDKKPDREEIQMSNMGSNTKSLDNNYSTPNERGDHNRTLDRSGDLGDMEPLKGTTPLMQKI"}}}
{"variants_of": "B1", "details": "with cadh1_mouse Cdh1, P09803"}
{"variant": "K121M", "effect of a mutation on the interaction": "disrupting interaction"}
{"variant": "K78M", "effect of a mutation on the interaction": "disrupting interaction"}
{"variant": "N155A", "effect of a mutation on the interaction": "disrupting interaction"}
{"variant": "W154A", "effect of a mutation on the interaction": "decreasing interaction"}
{"variants_of": "B2", "details": "with cadh1_human CDH1, P12830"}
{"variant": "K401M", "effect of a mutation on the interaction": "decreasing interaction"}
{"variant": "N478A", "effect of a mutation on the interaction": "decreasing interaction"}
